According to the supplement of paper PMC10567573:

B1: C1orf55 (parent)
chain: FTSPDYQQQCHEMAERLEDSVLKG
B2: RTP4 (parent)
chain: TYWEHWTSQGQVRMRLFGQRCQKC

Variants of: B1
Assay: protein stability index of a GFP-peptide fusion (GPS, HEK-293T) (PSI 1-6); higher = more stable
Settings: c terminus: a fixed tail appended
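Note: lentivirally expressed fusions sorted by FACS into six bins by GFP to DsRed ratio, PSI derived from sequencing read proportions per bin multiplied by bin number.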

Row | Variant | protein stability index
1 | L22Y | 2.26
2 | L22W | 2.21
3 | L22M | 2.35
4 | L22S | 2.76
5 | L22R | 2.71
6 | L22V | 2.75
7 | L22P | 2.97
8 | L22T | 2.22
9 | L22Q | 2.79
10 | L22N | 2.93
11 | G24W | 1.78
12 | G24V | 1.72
13 | G24C | 2.52
14 | G24M | 2.44
15 | G24A | 1.98
16 | G24E | 2.74
17 | G24P | 2
18 | G24F | 2.01
19 | G24K | 2.49
20 | G24D | 1.91
21 | G24S | 1.89
22 | G24R | 1.87
23 | G24Y | 1.8
24 | G24Q | 2

Row | Variant | protein stability index
25 | G24I | 1.5
26 | G24H | 1.52
27 | G24L | 1.87
28 | G24T | 2.26
29 | G24N | 2.15
30 | K23M | 2.02
31 | K23I | 2.1
32 | K23C | 1.79
33 | K23D | 2.57
34 | K23E | 2.35
35 | K23Y | 1.99
36 | K23A | 1.4
37 | K23G | 2.38
38 | K23W | 2.39
39 | K23F | 1.5
40 | K23H | 1.89
41 | K23S | 2.24
42 | K23L | 2.37
43 | K23V | 3.3
44 | K23N | 2.6
45 | K23P | 2.35
46 | K23Q | 2.23
47 | K23T | 2.13
48 | K23R | 2.57

Variants of: B2
Assay: as above
Settings: c terminus: a fixed tail appended

Row | Variant | protein stability index
49 | Q19V | 2.23
50 | Q19W | 2.6
51 | Q19F | 1.66
52 | Q19A | 1.98
53 | Q19N | 1.58
54 | Q19T | 1.05
55 | Q19K | 1.8
56 | Q19C | 2.9
57 | Q19Y | 1.03
58 | Q19S | 1.61
59 | Q19I | 2.31
60 | Q19E | 1.62
61 | Q19H | 2.6
62 | Q19L | 1.04
63 | Q19P | 1.25
64 | Q19R | 1.46
65 | Q19G | 1.45
66 | Q19D | 1.97
67 | W3H | 3.61
68 | W3M | 2.28
69 | W3F | 1.75
70 | W3T | 3.21
71 | W3E | 1.77
72 | W3Y | 1.54

Row | Variant | protein stability index
73 | W3C | 5.05
74 | W3K | 2.96
75 | W3G | 1.63
76 | W3I | 1.69
77 | W3N | 2.98
78 | W3R | 1.73
79 | W3P | 2.25
80 | W3A | 2.07
81 | W3D | 2.88
82 | W3Q | 2.51
83 | E4Q | 3.01
84 | E4N | 1.1
85 | E4P | 1.49
86 | E4I | 1.77
87 | E4C | 1.15
88 | E4M | 2.86
89 | E4K | 3.32
90 | E4H | 1.71
91 | E4G | 2.45
92 | M14Y | 1.9
93 | M14H | 2.18
94 | M14W | 1.77
95 | M14G | 2.51
96 | M14Q | 1.73

Row | Variant | protein stability index
97 | M14K | 2.9
98 | M14L | 1.39
99 | M14R | 2.29
100 | M14S | 1.5
101 | M14N | 1.69
102 | M14E | 2.36
103 | M14A | 2
104 | M14C | 2.58
105 | M14F | 1.63
106 | M14D | 2.05
107 | M14T | 1.84
108 | M14V | 1.89
109 | L16P | 2.13
110 | L16Q | 1.79
111 | L16A | 1.6
112 | L16G | 2.13
113 | L16D | 2.85
114 | L16R | 1.91
115 | L16I | 1.62
116 | L16C | 2.99
117 | L16H | 2.34
118 | L16W | 1.62
119 | L16T | 1.14
120 | L16S | 1.75

Row | Variant | protein stability index
121 | L16V | 1.81
122 | L16Y | 2.61
123 | L16N | 2.43
124 | L16F | 2.22
125 | L16K | 1.25
126 | Q9D | 1.4
127 | Q9G | 1.27
128 | Q9I | 2.08
129 | Q9E | 2.02
130 | Q9T | 1.8
131 | Q9A | 1.95
132 | Q9C | 1.48
133 | Q9W | 1.69
134 | Q9F | 1.77
135 | Q9R | 2.24
136 | Q9N | 2.08
137 | Q9P | 1.6
138 | Q9K | 2.17
139 | Q9H | 1.18
140 | Q9V | 2.5
141 | Q11C | 3.14
142 | Q11Y | 1.58
143 | Q11H | 1.65
144 | Q11G | 2.64

Row | Variant | protein stability index
145 | Q11I | 2.31
146 | Q11R | 2.6
147 | Q11P | 2.14
148 | Q11S | 2.59
149 | Q11M | 2.4
150 | Q11A | 1.84
151 | Q11D | 2.41
152 | Q11L | 2.02
153 | Q11K | 2.48
154 | Q11N | 2.01
155 | F17N | 2.9
156 | F17I | 1.67
157 | F17Y | 1.55
158 | F17D | 2.01
159 | F17G | 2.31
160 | F17K | 1.92
161 | F17L | 1.85
162 | F17H | 2.79
163 | F17P | 2.38
164 | F17W | 2.44
165 | F17M | 2.37
166 | F17C | 2.57
167 | F17A | 1.87
168 | F17T | 2.02

Row | Variant | protein stability index
169 | F17S | 2.27
170 | F17Q | 2.26
171 | F17E | 2.29
172 | T1C | 2.67
173 | T1H | 2.48
174 | T1P | 2.27
175 | T1G | 2.81
176 | T1V | 1.86
177 | T1S | 2.18
178 | T1D | 1.82
179 | T1Y | 2.21
180 | T1L | 1.88
181 | T1Q | 2.15
182 | T1W | 2.35
183 | T1A | 1.19
184 | T1E | 1.36
185 | H5N | 1.59
186 | H5M | 1.53
187 | H5A | 2.43
188 | H5P | 3.28
189 | H5Y | 1.58
190 | H5Q | 2.43
191 | H5R | 1.38
192 | H5W | 1.16

Row | Variant | protein stability index
193 | H5E | 2.19
194 | H5T | 2.12
195 | H5D | 2.07
196 | H5G | 1.62
197 | V12H | 2.21
198 | V12W | 3.46
199 | V12K | 1.57
200 | V12E | 2.19
201 | V12C | 2.42
202 | V12R | 1.76
203 | V12N | 1.65
204 | V12T | 2.09
205 | V12P | 1.98
206 | V12Q | 1.51
207 | V12A | 1.04
208 | V12Y | 2.65
209 | V12D | 1.7
210 | V12I | 1.61
211 | W6P | 2.07
212 | W6A | 2.4
213 | W6V | 2.32
214 | W6L | 1.61
215 | W6T | 1.94
216 | W6N | 2.11

Row | Variant | protein stability index
217 | W6K | 1.6
218 | W6D | 3.38
219 | W6E | 1.95
220 | W6C | 2.25
221 | W6Q | 2.65
222 | W6G | 1.75
223 | W6S | 2.13
224 | W6F | 1.39
225 | W6R | 2.7
226 | W6M | 1.52
227 | W6Y | 2.05
228 | Y2F | 1.32
229 | Y2G | 3.25
230 | Y2W | 1.53
231 | Y2A | 2.35
232 | Y2H | 1.99
233 | Y2N | 2.49
234 | Y2K | 2.19
235 | Y2E | 2.98
236 | Y2T | 2.46
237 | Y2C | 2.69
238 | Y2D | 1.66
239 | Y2P | 2.1
240 | Y2I | 1.74

Row | Variant | protein stability index
241 | Y2M | 2.39
242 | R15T | 1.7
243 | R15D | 2.71
244 | R15A | 2.06
245 | R15M | 2.09
246 | R15L | 1.97
247 | R15Q | 1.86
248 | R15I | 2.12
249 | R15P | 1.87
250 | R15S | 1.21
251 | R15H | 1.85
252 | R15V | 1.64
253 | R15N | 2.1
254 | R15C | 3.05
255 | R15E | 2.07
256 | R15F | 1.75
257 | R15G | 1.6
258 | R15K | 2.31
259 | G18A | 1.96
260 | G18K | 1.86
261 | G18I | 2.39
262 | G18Y | 2.41
263 | G18M | 1.36
264 | G18N | 2.14

Row | Variant | protein stability index
265 | G18P | 1.81
266 | G18R | 2.02
267 | G18S | 1.46
268 | G18T | 1.91
269 | G18D | 2.04
270 | G18F | 1.87
271 | G18E | 2.24
272 | G18W | 1.74
273 | G18C | 2.03
274 | G18Q | 1.4
275 | G18H | 2.23
276 | S8V | 1.67
277 | S8Q | 1.77
278 | S8E | 1.76
279 | S8I | 2.05
280 | S8D | 1.87
281 | S8K | 2.5
282 | S8M | 3.02
283 | S8P | 1.66
284 | S8C | 1.79
285 | S8L | 1.23
286 | S8Y | 1.82
287 | S8N | 1.32
288 | S8H | 2.56

Row | Variant | protein stability index
289 | S8A | 3.23
290 | S8T | 3.23
291 | S8R | 1.89
292 | S8G | 2.05
293 | R13H | 2.4
294 | R13N | 1.54
295 | R13P | 1.92
296 | R13C | 2.78
297 | R13G | 1.65
298 | R13W | 2.11
299 | R13I | 2.76
300 | R13V | 1.65
301 | R13L | 1.69
302 | R13S | 1.59
303 | R13E | 1.74
304 | R13D | 2.04
305 | G10H | 1.76
306 | G10R | 1.69
307 | G10I | 2.47
308 | G10C | 1.87
309 | G10S | 2.39
310 | G10W | 2.07
311 | G10A | 1.33
312 | G10L | 1.89

Row | Variant | protein stability index
313 | G10P | 1.91
314 | G10F | 2.53
315 | G10Q | 1.8
316 | G10M | 1.68
317 | G10T | 2.27
318 | G10Y | 1.92
319 | G10D | 2.21
320 | T7P | 2.27
321 | T7F | 1.21
322 | T7V | 1.93
323 | T7D | 1.86
324 | T7Y | 1.2
325 | T7A | 1.53
326 | T7W | 2.06
327 | T7S | 1.79
328 | T7C | 3.39
329 | T7N | 1.76
330 | T7R | 1.98
331 | T7H | 1.96
332 | T7Q | 1.77
333 | T7L | 1.61
334 | T7K | 2.04
